Measurements taken from patent US11180777B2, “Cell fraction and method of generating a cell fraction containing a protein of interest” (Corning Incorporated, priority 2015, dated 2021).

T1: Aldehyde Oxidase (AO) (Homo sapiens, UniProt Q06278)
T1 construct: made in house; host or cells: HEK293 cells, transfected by electroporation; supernatant (soluble fraction) after the 37,000 rpm spin
T1 sequence (Q06278 1-1338): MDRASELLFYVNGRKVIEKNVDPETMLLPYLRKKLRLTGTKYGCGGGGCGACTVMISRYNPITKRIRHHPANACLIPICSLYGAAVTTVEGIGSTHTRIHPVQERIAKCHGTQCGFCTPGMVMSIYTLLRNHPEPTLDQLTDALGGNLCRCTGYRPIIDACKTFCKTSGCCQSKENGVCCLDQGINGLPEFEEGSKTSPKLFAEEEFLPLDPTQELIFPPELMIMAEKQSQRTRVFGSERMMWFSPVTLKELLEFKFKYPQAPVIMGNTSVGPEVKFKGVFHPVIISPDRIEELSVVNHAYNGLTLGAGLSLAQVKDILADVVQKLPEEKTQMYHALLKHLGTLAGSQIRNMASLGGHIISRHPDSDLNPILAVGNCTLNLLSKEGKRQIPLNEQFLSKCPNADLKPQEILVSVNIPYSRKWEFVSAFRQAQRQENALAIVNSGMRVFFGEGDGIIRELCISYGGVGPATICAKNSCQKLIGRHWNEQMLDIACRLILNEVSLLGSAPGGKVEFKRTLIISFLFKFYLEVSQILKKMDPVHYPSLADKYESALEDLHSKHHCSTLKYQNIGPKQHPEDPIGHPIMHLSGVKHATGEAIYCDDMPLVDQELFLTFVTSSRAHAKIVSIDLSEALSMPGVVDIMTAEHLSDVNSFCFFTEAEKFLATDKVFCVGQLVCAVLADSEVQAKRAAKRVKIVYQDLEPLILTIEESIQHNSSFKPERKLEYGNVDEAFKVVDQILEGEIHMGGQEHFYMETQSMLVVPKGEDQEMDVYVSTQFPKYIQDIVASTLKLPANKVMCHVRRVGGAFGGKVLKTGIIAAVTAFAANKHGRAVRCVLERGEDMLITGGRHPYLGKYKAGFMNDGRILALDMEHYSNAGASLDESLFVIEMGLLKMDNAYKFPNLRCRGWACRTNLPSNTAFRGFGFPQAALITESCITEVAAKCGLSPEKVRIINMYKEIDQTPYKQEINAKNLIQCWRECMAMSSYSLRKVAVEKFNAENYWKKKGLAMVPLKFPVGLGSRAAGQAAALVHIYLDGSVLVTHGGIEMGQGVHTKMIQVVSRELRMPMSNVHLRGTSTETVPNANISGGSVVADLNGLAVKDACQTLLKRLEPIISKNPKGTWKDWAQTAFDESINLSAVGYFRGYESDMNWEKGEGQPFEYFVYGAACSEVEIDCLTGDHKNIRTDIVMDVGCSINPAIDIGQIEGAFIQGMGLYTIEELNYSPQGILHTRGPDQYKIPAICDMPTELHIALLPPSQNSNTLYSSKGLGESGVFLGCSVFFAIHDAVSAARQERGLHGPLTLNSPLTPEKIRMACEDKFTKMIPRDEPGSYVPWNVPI

T2: UGT1A1 (Homo sapiens, UniProt P22309)
T2 construct: made in house; host or cells: HEK293 cells, electroporated with UGT1A1 cDNA; microsomes (membrane pellet)
T2 sequence (P22309 26-533): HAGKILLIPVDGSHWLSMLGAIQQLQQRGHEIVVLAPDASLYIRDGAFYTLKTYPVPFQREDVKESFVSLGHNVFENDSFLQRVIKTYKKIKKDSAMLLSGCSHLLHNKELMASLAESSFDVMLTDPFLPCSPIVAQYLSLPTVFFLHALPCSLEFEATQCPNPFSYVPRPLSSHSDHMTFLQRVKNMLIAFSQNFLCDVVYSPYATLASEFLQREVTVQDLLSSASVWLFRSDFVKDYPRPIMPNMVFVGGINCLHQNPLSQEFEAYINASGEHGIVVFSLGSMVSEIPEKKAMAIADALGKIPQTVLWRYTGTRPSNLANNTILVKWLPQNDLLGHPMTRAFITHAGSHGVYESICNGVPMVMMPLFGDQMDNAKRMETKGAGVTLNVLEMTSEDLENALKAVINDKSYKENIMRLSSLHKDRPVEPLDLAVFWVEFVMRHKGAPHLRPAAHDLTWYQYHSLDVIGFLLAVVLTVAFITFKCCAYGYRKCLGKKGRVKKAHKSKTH


Tests used:
Aldehyde Oxidase (AO) = target: T1, Aldehyde Oxidase (AO); assay: AO assay with probe substrate phthalazine (HPLC); assay type: biochemical; details: rAO prepared with transfected HEK293 cells
Method: (§1) The recombinant AO and UGT1A1 enzymes were prepared as following. Briefly, the cells pellets obtained from the cell recovery step were washed once with phosphate buffered saline (PBS) and centrifuged at 1500 rpm for 10 min at 4° C. The resulting pellet was diluted with appropriate amount of 0.1 M potassium phosphate buffer, and transferred into Dounce Homogenizer followed with 10 stokes. The cell lysate was centrifuged at 2600 rpm for 10 minutes at 4° C. The supernatant was transferred to a new set of centrifuge tube and spun at 37,000 rpm for 15 minutes at 4° C. For recombinant AO, the supernatant (soluble fraction) was aliquoted and stored at −80° C. until use. For UGT1A1 microsomes, the pellet was resuspended in an appropriate amount of 0.1M Tris buffer and homogenized with a Dounce homogenizer with 10 strokes. The UGT1A1 microsomes were aliquoted and stored at −80° C. until use.
AO assays are carried out at 37° C. in 25 mM potassium phosphate buffer (pH7.4) containing 0.1 mM EDTA. 170 μL assay buffer was mixed with 20 μL 1 mM phthalazine and prewarmed to 37° C. in heat block. The reaction is initiated with 10 μL 5 mg/mL AO sample. The cap needs to be opened for oxygen circulation. After incubation, the reaction was stopped by the addition of 100 ul 94% acetonitrile/6% glacial acetic acid. The reaction mix was centrifuged (10,000×g) for 3 minutes and supernatant was analyzed on HPLC.

UGT1A1 = target: T2, UGT1A1; assay: UGT1A1 assay (beta-estradiol glucuronidation, HPLC); assay type: biochemical; details: electroporation method versus BEVs system
Method: as §1
A 0.2 ml reaction mixture containing 1.0 mg/ml protein, 2 mM uridine diphosphoglucuronic acid (UDPGA), 10 mM magnesium chloride, 0.025 mg/ml alamethicin and 150 uM beta-estradiol in 50 mM Tris (pH 7.5) was incubated at 37° C. for 30 minutes. After incubation, the reaction was stopped by the addition of 50 ul 94% acetonitrile/6% glacial acetic acid. The reaction mix was centrifuged (10,000×g) for 3 minutes and supernatant was analyzed on HPLC.

Row | UGT1A1 activity relative to UGT1A1 expressed with the BEVs system (UGT1A1) [×] | Molecule | AO kinetics with phthalazine (Aldehyde Oxidase (AO))
1 |  | Aldehyde Oxidase (AO): recombinant Phase 1 drug metabolizing enzyme Aldehyde Oxidase prepared with transfected HEK293 cells (soluble fraction) | exhibited standard michaelis-mention kinetics curve
2 | 5 | UGT1A1: UGT1A1 expressed using the electroporation method (HEK293 microsomes) (protein, UniProt P22309 26-533, looked up) UDP-glucuronosyltransferase …: HAGKILLIPVDGSHWLSMLGAIQQLQQRGHEIVVLAPDASLYIRDGAFYTLKTYPVPFQREDVKESFVSLGHNVFENDSFLQRVIKTYKKIKKDSAMLLSGCSHLLHNKELMASLAESSFDVMLTDPFLPCSPIVAQYLSLPTVFFLHALPCSLEFEATQCPNPFSYVPRPLSSHSDHMTFLQRVKNMLIAFSQNFLCDVVYSPYATLASEFLQREVTVQDLLSSASVWLFRSDFVKDYPRPIMPNMVFVGGINCLHQNPLSQEFEAYINASGEHGIVVFSLGSMVSEIPEKKAMAIADALGKIPQTVLWRYTGTRPSNLANNTILVKWLPQNDLLGHPMTRAFITHAGSHGVYESICNGVPMVMMPLFGDQMDNAKRMETKGAGVTLNVLEMTSEDLENALKAVINDKSYKENIMRLSSLHKDRPVEPLDLAVFWVEFVMRHKGAPHLRPAAHDLTWYQYHSLDVIGFLLAVVLTVAFITFKCCAYGYRKCLGKKGRVKKAHKSKTH | 
